Source: paper PMC4545359

Target: T1, CRP-His6 (cAMP receptor protein) (Vibrio cholerae C6706) (UniProt O34015)
T1 sequence: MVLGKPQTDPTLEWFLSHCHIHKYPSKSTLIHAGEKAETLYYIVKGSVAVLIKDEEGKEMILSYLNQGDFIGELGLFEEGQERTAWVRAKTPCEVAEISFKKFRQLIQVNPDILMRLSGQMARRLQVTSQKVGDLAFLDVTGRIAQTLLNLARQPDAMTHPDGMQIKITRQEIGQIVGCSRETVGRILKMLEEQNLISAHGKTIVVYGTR
Test: EMSA
Conditions: 10 mM Tris pH 7.5, 1 mM EDTA, 100 mM KCl, 0.1 mM DTT, 5% glycerol, 0.01 mg/ml BSA; CRP 11 ng/ul, promoter DNA 2.5 ng/ul, 75 ng NS DNA; 1 h at room temperature …

For “CAGTGGATTAGCGTATGGACACGGCTACGTTTCCGCAGTGGAAAACGGTGTCGCCGAAGGACGTGTCACCTTGTGTAAATTTGCCGCTAACGGCACTGGAAAAAAAAACACTCACTGTGGCGCGATTCAATAC (double strand) [non-specific control 133 bp fragment (NS)]”, the binding was “no binding”.
